Consider 1 substance from IntAct's records for PubMed 24880343.

The target of the assay is pan3_drome PAN3 (UniProt Q95RR8).
Chain of pan3_drome PAN3 (Q95RR8 whole entry): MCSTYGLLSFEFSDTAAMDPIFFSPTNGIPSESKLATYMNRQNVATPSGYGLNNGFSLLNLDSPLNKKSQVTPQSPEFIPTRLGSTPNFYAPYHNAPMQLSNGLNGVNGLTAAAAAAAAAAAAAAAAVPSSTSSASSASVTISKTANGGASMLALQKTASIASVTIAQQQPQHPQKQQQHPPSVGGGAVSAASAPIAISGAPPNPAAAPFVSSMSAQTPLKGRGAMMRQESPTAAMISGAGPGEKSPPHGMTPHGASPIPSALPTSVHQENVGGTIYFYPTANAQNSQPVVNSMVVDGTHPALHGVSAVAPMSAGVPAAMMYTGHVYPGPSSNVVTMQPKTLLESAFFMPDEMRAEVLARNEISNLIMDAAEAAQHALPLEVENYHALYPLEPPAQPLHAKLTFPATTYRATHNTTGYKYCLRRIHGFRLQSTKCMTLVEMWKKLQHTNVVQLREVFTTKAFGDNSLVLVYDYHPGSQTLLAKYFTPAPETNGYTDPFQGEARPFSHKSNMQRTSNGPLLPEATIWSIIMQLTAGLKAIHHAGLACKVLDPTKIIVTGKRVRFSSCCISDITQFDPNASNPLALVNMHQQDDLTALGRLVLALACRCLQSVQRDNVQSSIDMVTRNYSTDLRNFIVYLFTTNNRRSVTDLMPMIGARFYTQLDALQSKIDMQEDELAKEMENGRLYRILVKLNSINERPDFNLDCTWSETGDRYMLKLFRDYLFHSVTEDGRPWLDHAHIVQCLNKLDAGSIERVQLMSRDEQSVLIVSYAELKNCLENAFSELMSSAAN

Chain of PAN2-PAN3 deadenylation complex catalytic subunit PAN2 (Drosophila melanogaster (Fruit fly)), A1Z7K9 T97R;H102G (A1Z7K9 whole entry T97R/H102G, one chain of several): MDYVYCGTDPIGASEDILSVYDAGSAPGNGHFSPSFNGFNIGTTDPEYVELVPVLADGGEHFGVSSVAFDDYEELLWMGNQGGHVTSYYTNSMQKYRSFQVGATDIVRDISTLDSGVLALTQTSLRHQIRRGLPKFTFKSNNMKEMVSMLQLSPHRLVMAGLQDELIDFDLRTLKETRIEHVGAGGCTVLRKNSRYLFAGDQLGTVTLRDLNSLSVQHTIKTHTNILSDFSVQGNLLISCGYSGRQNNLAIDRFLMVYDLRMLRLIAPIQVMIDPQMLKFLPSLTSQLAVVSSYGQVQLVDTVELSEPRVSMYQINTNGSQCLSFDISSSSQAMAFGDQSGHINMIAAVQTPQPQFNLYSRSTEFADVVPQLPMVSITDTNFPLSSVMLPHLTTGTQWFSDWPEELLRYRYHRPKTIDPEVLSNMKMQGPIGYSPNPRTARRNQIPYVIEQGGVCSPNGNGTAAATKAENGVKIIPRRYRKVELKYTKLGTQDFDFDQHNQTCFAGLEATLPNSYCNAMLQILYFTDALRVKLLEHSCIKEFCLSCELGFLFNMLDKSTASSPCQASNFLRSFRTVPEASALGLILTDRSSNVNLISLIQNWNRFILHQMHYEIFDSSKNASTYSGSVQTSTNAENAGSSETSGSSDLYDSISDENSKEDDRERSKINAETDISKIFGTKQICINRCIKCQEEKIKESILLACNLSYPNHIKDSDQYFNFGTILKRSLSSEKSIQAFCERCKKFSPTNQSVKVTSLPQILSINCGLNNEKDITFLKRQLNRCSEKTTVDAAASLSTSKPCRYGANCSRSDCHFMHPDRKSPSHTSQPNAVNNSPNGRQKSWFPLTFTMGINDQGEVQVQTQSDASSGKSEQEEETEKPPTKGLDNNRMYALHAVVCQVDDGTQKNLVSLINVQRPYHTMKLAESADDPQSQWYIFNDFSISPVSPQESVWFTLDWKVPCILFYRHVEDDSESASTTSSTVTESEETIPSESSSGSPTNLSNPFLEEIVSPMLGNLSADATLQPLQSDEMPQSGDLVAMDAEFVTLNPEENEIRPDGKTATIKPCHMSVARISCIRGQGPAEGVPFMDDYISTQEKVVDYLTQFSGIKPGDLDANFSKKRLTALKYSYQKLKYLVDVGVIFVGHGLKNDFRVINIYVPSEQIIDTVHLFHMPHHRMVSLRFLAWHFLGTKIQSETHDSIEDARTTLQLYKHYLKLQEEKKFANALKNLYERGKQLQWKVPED

Take “PAN2-PAN3 deadenylation complex catalytic subunit PAN2 (Drosophila melanogaster (Fruit fly)), A1Z7K9 T97R;H102G”: the “effect of a mutation on the interaction” value is recorded as “disrupting interaction strength”.
